Experimental data reported in US20200362018A1 (YEDA RESEARCH AND DEVELOPMENT, published 2020).

How the values were obtained:
[1] = target: T1, T. acidophilum (Archaea) 20S proteasome (T. acidophilum, UniProt P25156 1-233; P28061 9-211); experiment: peptide array of overlapping T. acidophilum 20S proteasome peptides
T1 construct: Assembled in vitro as α7β7β7α7; also called archaeal 20S proteasome; 20S proteasome from T. acidophilum

α-synuclein = α-synuclein (UniProt P37840 1-140); experiment: native mass spectrometry of α-synuclein incubated with the CCR
Description: Nanoflow electrospray ionization MS and tandem MS experiments were conducted under non-denaturing conditions on a QToF Q-Star Elite instrument (MDS Sciex, Canada), modified for improved transmission of large non-covalent complexes, or an Q-Exactive Plus Orbitrap EMR (ThermoFisher Scientific). Before MS analysis, 20 μl of up to 100 mM sample was buffer exchanged into 0.5-1 M ammonium acetate pH 7.5, using Bio-Spin columns (Bio-Rad). Sample concentrations were determined by ultraviolet absorbance. Assays were performed in positive ion mode and conditions were optimized to enable the ionization and removal of adducts, without disrupting the non-covalent interactions of the proteins tested. In tandem MS experiments, the relevant m/z values were isolated and argon gas was admitted to the collision cell. […] The following experimental parameters were used on the QToF Q-Star Elite instrument: capillary voltage up to 1.1 kV, declustering potential up to 220 V, focusing potential up to 240 V, a second declustering potential of 15 V, collision energy of between 20 and 200 V and an MCP of 2,350 V. The following experimental conditions were used on the Q-Exactive Plus Orbitrap EMR: capillary voltage 1.7 kV, MS spectra were recorded at low resolution (5000), and the HCD cell voltage was set to 20-50 V, at trapping gas pressure setting of 3.9. […]

[2] = target: T1, T. acidophilum (Archaea) 20S proteasome; experiment: native MS with MS/MS of the isolated 20S proteasome peak
Description: Nanoflow electrospray ionization MS and tandem MS experiments were conducted under non-denaturing conditions on a QToF Q-Star Elite instrument (MDS Sciex, Canada), modified for improved transmission of large non-covalent complexes, or an Q-Exactive Plus Orbitrap EMR (ThermoFisher Scientific). Before MS analysis, 20 μl of up to 100 mM sample was buffer exchanged into 0.5-1 M ammonium acetate pH 7.5, using Bio-Spin columns (Bio-Rad). Sample concentrations were determined by ultraviolet absorbance. Assays were performed in positive ion mode and conditions were optimized to enable the ionization and removal of adducts, without disrupting the non-covalent interactions of the proteins tested. In tandem MS experiments, the relevant m/z values were isolated and argon gas was admitted to the collision cell. […] The following experimental parameters were used on the QToF Q-Star Elite instrument: capillary voltage up to 1.1 kV, declustering potential up to 220 V, focusing potential up to 240 V, a second declustering potential of 15 V, collision energy of between 20 and 200 V and an MCP of 2,350 V. The following experimental conditions were used on the Q-Exactive Plus Orbitrap EMR: capillary voltage 1.7 kV, MS spectra were recorded at low resolution (5000), and the HCD cell voltage was set to 20-50 V, at trapping gas pressure setting of 3.9.

T1 sequence (P25156 whole entry, chain 1 of 2): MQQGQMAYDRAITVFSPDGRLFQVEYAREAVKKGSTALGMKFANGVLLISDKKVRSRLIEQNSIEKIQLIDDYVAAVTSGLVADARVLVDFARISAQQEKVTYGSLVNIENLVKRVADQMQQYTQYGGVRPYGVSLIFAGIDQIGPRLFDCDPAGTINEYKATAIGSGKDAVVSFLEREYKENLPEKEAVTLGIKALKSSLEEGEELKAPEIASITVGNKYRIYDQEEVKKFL
T1 sequence (P28061 9-211, chain 2 of 2): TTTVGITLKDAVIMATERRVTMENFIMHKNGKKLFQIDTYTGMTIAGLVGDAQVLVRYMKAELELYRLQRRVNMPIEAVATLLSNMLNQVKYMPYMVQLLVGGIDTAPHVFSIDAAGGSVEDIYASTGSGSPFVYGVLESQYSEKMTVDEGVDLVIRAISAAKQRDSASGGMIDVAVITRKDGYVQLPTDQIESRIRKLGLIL

binding result [1]	binding result (α-synuclein)	binding result [2]	Binder
binds	no binding		human CBR3 (recombinant, His tag removed) (enzyme, UniProt O75828 1-277, looked up) MSSCSRVALVTGANRGIGLAIARELCRQFSGDVVLTARDVARGQAAVQQLQAEGLSPRFHQLDIDDLQSIRALRDFLRKEYGGLNVLVNNAAVAFKSDDPMPFDIKAEMTLKTNFFATRNMCNELLPIMKPHGRVVNISSLQCLRAFENCSEDLQERFHSETLTEGDLVDLMKKFVEDTKNEVHEREGWPNSPYGVSKLGVTVLSRILARRLDEKRKADRILVNACCPGPVKTDMDGKDSIRTVEEGAETPVYLALLPPDATEPQGQLVHDKVVQNW
		binds	human DJ-1 (other, UniProt Q99497 1-189, looked up, also called PARK7) MASKRALVILAKGAEEMETVIPVDVMRRAGIKVTVAGLAGKDPVQCSRDVVICPDASLEDAKKEGPYDVVVLPGGNLGAQNLSESAAVKEILKEQENRKGLIAAICAGPTALLAHEIGFGSKVTTHPLAKDKMMNGGHYTYSENRVEKDGLILTSRGPGTSFEFALAIVEALNGKEVAAQVKAPLVLKD
	no binding		human PGDH with a C-terminal 6His tag (enzyme, also called PGDH-His; not shown: C-terminal 6His tag) MHVNGKVALVTGAAQGIGRAFAEALLLKGAKVALVDWNLEAGVQCKAALDEQFEPQKTLFIQCDVADQQQLRDTFRKVVDHFGRLDILVNNAGVNNEKNWEKTLQINLVSVISGTYLGLDYMSKQNGGEGGIIINMSSLAGLMPVAQQPVYCASKHGIVGFTRSAALAANLMNSGVRLNAICPGFVNTAILESIEKEENMGQYIEYKDHIKDMIKYYGILDPPLIANGLITLIEDDALNGAIMKITTSKGIHFQDYDTTPFQAKTQ
